According to patent US20250122303A1 (HUMMINGBIRD BIOSCIENCE PTE, published 2025):
Changes are numbered by the printed parent chain. Like-named read-outs stand apart in the source and are kept apart here.

Tests used:
[1] = target: T1, rat HER3 (rat, UniProt Q62799 20-641, limits assumed); assay: ELISA, plate coated with 0.1 ug/ml rat HER3, antibody titrated, absorbance 450 nm
T1 construct: also called rat homologue of HER3 (Sino Biological Inc.); R. norvegicus HER3
Procedure: (§1) ELISAs were used to determine the binding specificity of the antibodies. The antibodies were analysed for binding to human HER3 polypeptide, as well as respective mouse, rat and monkey homologues of HER3 (Sino Biological Inc., China). The antibodies were also analysed for their ability to bind to human EGFR and human HER2 (Sino Biological Inc., China).
(§2) ELISAs were carried out according to standard protocols. Briefly, 96-well plates (Nunc, Denmark) were coated with 0.1 μg/ml of target polypeptide in phosphate-buffered saline (PBS) for 16 h at 4° C. After blocking for 1 h with 1% BSA in Tris buffer saline (TBS) at room temperature, the anti-HER3 antibody was serially diluted with the highest concentration being 10 μg/ml, and added to the plate. Post 1 h incubation at room temperature, plates were washed three times with TBS containing 0.05% Tween 20 (TBS-T) and were then incubated with a HRP-conjugated […] antibody (Life Technologies, Inc., USA) for 1 h at room temperature. After washing, plates were developed with colorimetric detection substrate 3,3′,5,5′-tetramethylbenzidine (Turbo-TMB; Pierce, USA) for 10 min. The reaction was stopped with 2M H₂SO₄, and OD was measured at 450 nm.

[2] = target: T2, human HER3 polypeptide (human, UniProt P21860 20-643); assay: ELISA, plate coated with 0.1 ug/ml human HER3, antibody titrated, absorbance 450 nm
T2 construct: Recombinant antigen of the ELISAs; also called human HER3 (Sino Biological Inc.); human antigen HER3
Procedure: as §1, §2

[3] = target: T2, human HER3 polypeptide; assay: as above; remark: listed apart in the source
Procedure: as §1, §2

[4] = target: T3, mouse HER3 (mouse, UniProt Q61526 20-641); assay: ELISA, plate coated with 0.1 ug/ml mouse HER3, antibody titrated, absorbance 450 nm
T3 construct: also called mouse homologue of HER3 (Sino Biological Inc.); M. musculus HER3
Procedure: as §1, §2

[5] = target: T4, human EGFR (human, UniProt P00533 25-645); assay: ELISA, plate coated with 0.1 ug/ml human EGFR, antibody titrated, absorbance 450 nm
T4 construct: also called human HER1 (EGFR) (Sino Biological Inc.)
Procedure: as §1, §2

[6] = target: T5, human HER2 (human, UniProt P04626 23-652); assay: ELISA, plate coated with 0.1 ug/ml human HER2, antibody titrated, absorbance 450 nm
T5 construct: also called human HER2 (Sino Biological Inc.)
Procedure: as §1, §2

[7] = target: T6, cynomolgus macaque HER3 (cynomolgus macaque, UniProt G7PIG5 20-643); assay: ELISA, plate coated with 0.1 ug/ml cynomolgus HER3, antibody titrated, absorbance 450 nm
T6 construct: also called monkey homologue of HER3 (Sino Biological Inc.); HER3 cyno
Procedure: as §1, §2

[8] = target: T7, His-tagged FcγRIIIa (V158) (human, UniProt P08637 17-208); assay: Bio-Layer Interferometry; His-tagged FcγRIIIa (V158) on anti-Penta-HIS tips, antibody in solution
T7 construct: not shown: His tag
Procedure: (§3) All measurements were performed at 25° C. with agitation at 1000 rpm. […] Sensograms were referenced for buffer effects and then fitted using the Octet QK384 user software (Pall ForteBio, USA). Kinetic responses were subjected to a global fitting using a one site binding model to obtain values for association (Kₒₙ), dissociation (Koff) rate constants and the equilibrium dissociation constant (KD). Only curves that could be reliably fitted with the software (R²>0.90) were included in the analysis.
BLI was performed as described above.

[9] = target: T8, His-tagged human HER3 (human, UniProt P21860 20-643); assay: BLI (Octet QK384), antibody on anti-human IgG capture tips, His-tagged human HER3 in solution, global one-site fit
T8 construct: Antigen of the BLI experiments and of the HER2-Fc dimerisation ELISA; also called HER3 His; not shown: His tag
Procedure: as §3, with “The anti-HER3 antibody clones in IgG1 format were analysed for binding affinity to human HER3. Bio-Layer Interferometry (BLI) experiments were performed using the Octet QK384 system (ForteBio). anti-Human IgG Capture (AHC) Octet sensor tips (Pall ForteBio, USA) were used to anti-HER3 antibodies (25 nM). All” for “All”

[10] = target: T9, human HER3 expressed on cells (HEK293 HER3 O/E cells) (human, UniProt P21860 20-1342); assay: flow cytometry on HEK293T HER3 O/E cells, 10 ug antibody as printed, FITC-conjugated anti-Fc secondary
T9 construct: Also used here for HER3 on U2OS cells of the PathHunter kit and on cancer cell lines; also called HEK293 cells transfected with vector encoding human HER3; human HER3-expressing cells
Procedure: The cells were washed with buffer (PBS with 2 mM EDTA and 0.5% BSA) and resuspended in FITC-conjugated anti-FC antibody (Invitrogen, USA) at 10 μg/ml for 20 min at 4° C. Cells were washed again and resuspended in 200 μL of FACS flow buffer (PBS with 5 mM EDTA) for flow cytometric analysis using MACSQuant 10 (Miltenyi Biotec, Germany). Unstained WT and transfected HEK293 cells were included in the analysis as negative controls. After acquisition, all raw data were analyzed using Flowlogic software. Cells were gated using forward and side scatter profile percentage of positive cells was determined for native and overexpressing cell populations.

[11] = target: T8, His-tagged human HER3; assay: BLI (Octet QK384), antibody on anti-human IgG capture tips, His-tagged human HER3 35-278 nM, global 1:1 fit; kdis Error 1.56E-04
Procedure: as §3, with “The anti-HER3 antibody clones in IgG1 format were analysed for binding affinity to human HER3. Bio-Layer Interferometry (BLI) experiments were performed using the Octet QK384 system (ForteBio). anti-Human IgG Capture (AHC) Octet sensor tips (Pall ForteBio, USA) were used to anti-HER3 antibodies (25 nM). All” for “All”

[12] = target: T9, human HER3 expressed on cells (HEK293 …); assay: flow cytometry, HEK293 cells overexpressing human HER3, 20 ug/ml antibody, FITC anti-Fc secondary; same antibody on WT HEK293: 0.60
Procedure: (§4) The cells were washed thrice with FACS buffer (PBS with 5 mM EDTA and 0.5% BSA) and resuspended in FITC-conjugated anti-FC antibody (Invitrogen, USA) for 40 min at 2-8° C. Cells were washed again and resuspended in 200 μL of FACS flow buffer (PBS with 5 mM EDTA) for flow cytometric analysis using MACSQuant 10 (Miltenyi Biotec, Germany). After acquisition, all raw data were analyzed using Flowlogic software. Cells were gated using forward and side scatter profile percentage of positive cells was determined for native and overexpressing cell populations.

[13] = target: T9, human HER3 expressed on cells (HEK293 …); assay: as above; remark: listed apart in the source
Procedure: as §4

[14] = target: T8, His-tagged human HER3; assay: BLI (Octet QK384), antibody on anti-human IgG capture tips, His-tagged human HER3 in solution, global 1:1 fit, R^2 = 0.9898, kon Error 8.22E+03; Response 0.0794 / 0.1744 / 0.3278 / 0.5079 at 35 / 69 / 139 / 278 nM
Procedure: as §3, with “The anti-HER3 antibody clones in IgG1 format were analysed for binding affinity to human HER3. Bio-Layer Interferometry (BLI) experiments were performed using the Octet QK384 system (ForteBio). anti-Human IgG Capture (AHC) Octet sensor tips (Pall ForteBio, USA) were used to anti-HER3 antibodies (25 nM). All” for “All”

[15] = target: T2, human HER3 polypeptide; assay: ELISA, plate coated with human HER3, antibody titrated, absorbance 450 nm, x axis Log([Ab]) (ug/ml)
[16] = target: T8, His-tagged human HER3; assay: BLI (Octet QK384), antibody on anti-human IgG capture tips, His-tagged human HER3 35-278 nM, global 1:1 fit
Procedure: as §3, with “The anti-HER3 antibody clones in IgG1 format were analysed for binding affinity to human HER3. Bio-Layer Interferometry (BLI) experiments were performed using the Octet QK384 system (ForteBio). anti-Human IgG Capture (AHC) Octet sensor tips (Pall ForteBio, USA) were used to anti-HER3 antibodies (25 nM). All” for “All”

[17] = target: T9, human HER3 expressed on cells (HEK293 …); assay: flow cytometry, HEK293 cells overexpressing human HER3 (293_OE HER3), 20 ug/ml antibody, FITC anti-Fc secondary; same antibody on 293 cells: 2.48; unstained 293: 0.14
Procedure: as §4

[18] = target: T8, His-tagged human HER3; assay: BLI (Octet QK384), antibody on anti-human IgG capture tips, His-tagged human HER3 in solution, global 1:1 fit, R^2 = 0.9891, kon Error 1.04E+04; Response 0.1355 / 0.3221 / 0.4533 / 0.5944 at 35 / 39 (as printed in the table; graph label 69) / 139 / 278 nM
Procedure: as §3, with “The anti-HER3 antibody clones in IgG1 format were analysed for binding affinity to human HER3. Bio-Layer Interferometry (BLI) experiments were performed using the Octet QK384 system (ForteBio). anti-Human IgG Capture (AHC) Octet sensor tips (Pall ForteBio, USA) were used to anti-HER3 antibodies (25 nM). All” for “All”

[19] = target: T8, His-tagged human HER3; assay: BLI (Octet QK384), antibody on anti-human IgG capture tips, His-tagged human HER3 35-278 nM, global 1:1 fit; kdis Error 1.11E-04
Procedure: as §3, with “The anti-HER3 antibody clones in IgG1 format were analysed for binding affinity to human HER3. Bio-Layer Interferometry (BLI) experiments were performed using the Octet QK384 system (ForteBio). anti-Human IgG Capture (AHC) Octet sensor tips (Pall ForteBio, USA) were used to anti-HER3 antibodies (25 nM). All” for “All”

[20] = target: T9, human HER3 expressed on cells (HEK293 …); assay: flow cytometry, HEK293 cells overexpressing human HER3 (293_OE HER3), 20 ug/ml antibody, FITC anti-Fc secondary; same antibody on 293 cells: 5.38; unstained 293: 0.14
Procedure: as §4

[21] = target: T8, His-tagged human HER3; assay: BLI (Octet QK384), antibody on anti-human IgG capture tips, His-tagged human HER3 in solution, global 1:1 fit, R^2 = 0.9917, kon Error 9.57E+03; Response 0.1296 / 0.2851 / 0.4098 / 0.5575 at 35 / 69 / 139 / 278 nM
Procedure: as §3, with “The anti-HER3 antibody clones in IgG1 format were analysed for binding affinity to human HER3. Bio-Layer Interferometry (BLI) experiments were performed using the Octet QK384 system (ForteBio). anti-Human IgG Capture (AHC) Octet sensor tips (Pall ForteBio, USA) were used to anti-HER3 antibodies (25 nM). All” for “All”

T1 sequence (Q62799 20-641 limits assumed): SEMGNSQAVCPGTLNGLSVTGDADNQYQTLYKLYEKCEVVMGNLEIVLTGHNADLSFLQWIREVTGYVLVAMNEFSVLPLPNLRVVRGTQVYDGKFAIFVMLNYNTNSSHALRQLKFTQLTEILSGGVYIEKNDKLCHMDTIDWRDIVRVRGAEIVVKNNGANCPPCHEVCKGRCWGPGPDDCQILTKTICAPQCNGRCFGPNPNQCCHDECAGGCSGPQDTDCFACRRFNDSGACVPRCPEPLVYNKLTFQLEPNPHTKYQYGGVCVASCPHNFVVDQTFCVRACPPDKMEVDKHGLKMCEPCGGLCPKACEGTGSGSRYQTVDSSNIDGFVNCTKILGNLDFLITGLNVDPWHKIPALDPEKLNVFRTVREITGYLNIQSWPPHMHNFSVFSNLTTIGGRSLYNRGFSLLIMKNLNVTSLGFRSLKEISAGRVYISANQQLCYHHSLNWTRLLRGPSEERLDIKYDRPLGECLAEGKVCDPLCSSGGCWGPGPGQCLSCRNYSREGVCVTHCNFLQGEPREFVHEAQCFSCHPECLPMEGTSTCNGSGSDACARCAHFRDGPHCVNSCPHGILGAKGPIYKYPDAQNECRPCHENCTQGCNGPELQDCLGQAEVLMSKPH
T6 sequence (G7PIG5 entry or part of it): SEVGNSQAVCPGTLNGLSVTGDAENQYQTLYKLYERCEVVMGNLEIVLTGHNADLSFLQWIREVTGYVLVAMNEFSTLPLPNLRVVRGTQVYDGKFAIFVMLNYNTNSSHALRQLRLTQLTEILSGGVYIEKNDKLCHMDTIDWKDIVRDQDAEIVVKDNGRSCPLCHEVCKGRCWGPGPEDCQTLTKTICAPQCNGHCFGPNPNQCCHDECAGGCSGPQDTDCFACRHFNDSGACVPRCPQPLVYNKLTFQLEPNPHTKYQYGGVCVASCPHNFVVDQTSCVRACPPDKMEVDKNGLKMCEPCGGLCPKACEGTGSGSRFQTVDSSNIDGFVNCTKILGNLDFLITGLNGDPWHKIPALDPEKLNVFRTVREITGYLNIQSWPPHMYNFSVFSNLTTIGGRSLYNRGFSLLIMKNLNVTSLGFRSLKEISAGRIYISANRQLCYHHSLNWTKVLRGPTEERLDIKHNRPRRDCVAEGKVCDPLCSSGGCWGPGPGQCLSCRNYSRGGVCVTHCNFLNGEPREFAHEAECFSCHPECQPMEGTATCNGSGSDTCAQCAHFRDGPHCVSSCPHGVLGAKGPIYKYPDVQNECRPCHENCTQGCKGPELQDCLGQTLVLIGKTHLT
T3 sequence (Q61526 20-641 limits assumed): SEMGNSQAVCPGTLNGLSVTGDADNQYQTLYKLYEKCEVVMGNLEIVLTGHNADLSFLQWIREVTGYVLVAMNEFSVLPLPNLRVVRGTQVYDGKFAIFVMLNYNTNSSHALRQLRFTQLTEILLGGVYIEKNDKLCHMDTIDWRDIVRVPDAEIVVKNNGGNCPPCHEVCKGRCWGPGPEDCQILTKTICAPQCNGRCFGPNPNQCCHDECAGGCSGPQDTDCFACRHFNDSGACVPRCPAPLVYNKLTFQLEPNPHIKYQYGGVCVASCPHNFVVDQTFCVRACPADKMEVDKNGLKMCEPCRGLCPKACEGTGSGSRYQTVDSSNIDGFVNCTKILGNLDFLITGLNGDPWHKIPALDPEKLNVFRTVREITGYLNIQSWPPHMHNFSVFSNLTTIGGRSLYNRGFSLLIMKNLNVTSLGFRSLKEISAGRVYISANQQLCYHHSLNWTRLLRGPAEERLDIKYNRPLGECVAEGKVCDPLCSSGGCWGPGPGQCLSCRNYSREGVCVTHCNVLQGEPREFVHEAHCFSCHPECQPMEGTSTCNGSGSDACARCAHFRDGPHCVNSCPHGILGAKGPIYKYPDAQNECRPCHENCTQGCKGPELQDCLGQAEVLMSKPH

B1: anti-HER3 clone 10D1 IgG1 (antibody)
heavy: not shown
light: DIVMTQSQKFMSTSVGDRVSVTCKASQIVGSNVAWYQQKPGQSPKPLIYSASYRYSGVPDRFTASGSGTDFTLTITNVQSEDLAEYFCQQYSSHPLTFGAGTKLELKRTVAAPSVFIFPPSDEQLKSGTASVVCLLNNFYPREAKVQWKVDNALQSGNSQESVTEQDSKDSTYSLSSTLTLSKADYEKHKVYACEVTHQGLSSPVTKSFNRGEC
notes: Mouse variable regions on human IgG1/kappa constant regions (human-mouse chimeric antibody); also called 10D1P; 10D1 (parental)
B1 was tested. Which EC50 [1] did it give?
The EC50 was 0.372 nM.

What about the EC50 [2] of the same binder?
Its EC50 is 0.00588 nM.

And the EC50 [3]?
The EC50 was 0.00588 nM.

What about the EC50 [4] of the same binder?
Its EC50 is 0.137 nM.

Does B1 bind [5]?
Result: no binding (tested: log(M) about -6.7)

Does B1 bind [6]?
Result: no binding (tested: log(M) about -6.7)

And the EC50 [7]?
The EC50 was 0.00368 nM.

What about the Kd [8] of the same binder?
The Kd was 298 nM.

What about the koff [8] of the same binder?
Its koff is 0.04 s⁻¹.

And the kon [8]?
Its kon is 130000 M⁻¹ s⁻¹.

What about the Kd [9] of the same binder?
The Kd was 9.58 nM.

And the “% Parent (HER3 positive)” value [10]?
The value was 65.7%.

And the koff [11]?
The koff was 0.00173 s⁻¹.

What about the “% Parent (HER3 positive)” value [12] of the same binder?
The value was 99%.

What about the “% Parent (HER3 positive)” value [13] of the same binder?
Its value is 99%.

What about the kon [14] of the same binder?
Its kon is 180000 M⁻¹ s⁻¹.

B2: anti-HER3 clone 10D1_c90 IgG1 (antibody, V domains shown)
VH: QVQLQESGPGLVKPSQTLFLTCTVSGYSITSGYSWHWIRQHPGKGLEWIGSIRYSGGTDYNPSLKSLVTISVDTSKNQFSLKLSSVTAADTAVYYCARMTTAPWYPFDYWGQGTTVTVSS
VL: DIQMTQSPSSVSASVGDRVTFTCKASQIVGSNVAWYQQKPGKAPEPLIYSASYLYSSVPSRFSGSGSGTEFTMTISSLEPEDFATYYCQQYTTHPLTFGPGTKVEIKR
notes: Humanised 10D1 variant, IgG1/kappa
For B2, which Kd [9] is on record?
The Kd was under 0.001 nM.

What about the “EC50 (read off the curve)” value [15] of the same binder?
The value was about 7 ng/mL.

What about the koff [16] of the same binder?
The koff was under 1e-07 s⁻¹.

What about the “% Parent (HER3 positive)” value [17] of the same binder?
Its value is 41.8%.

And the kon [18]?
Its kon is 252000 M⁻¹ s⁻¹.

B3: anti-HER3 clone 10D1_c91 IgG1 (antibody, V domains shown)
VH: B2 VH with F19S, S28Y, V68A, V72A, T115A
VL: DIQMTQSPSSVSASVGDRVTITCKASQIVGSNVAWYQQKPGKAPMPLIYSASYGYSGVPSRFSGSGSGTDFTLTISSLQPEDFATYYCQQYSSHPLTFGQGTKLEIKR
notes: as for B2
How did the Kd [9] turn out when B3 was run?
Its Kd is 0.176 nM.

What about the “EC50 (read off the curve)” value [15] of the same binder?
The value was about 5 ng/mL.

And the koff [19]?
Its koff is 4.73e-05 s⁻¹.

And the “% Parent (HER3 positive)” value [20]?
Its value is 48%.

What about the kon [21] of the same binder?
Its kon is 269000 M⁻¹ s⁻¹.
